PMC10239819

Experiments:
[1] = target: C3b prepared from human EDTA plasma (human)
[2] = target: C3b prepared from human EDTA plasma (human); remark: listed apart in the source
[3] = target: Factor B (Homo sapiens) (UniProt P00751); conditions: cited from earlier work
[4] = target: C3bB, the AP C3 pro-convertase (factor B complexed with C3b) (human)

Factor B (Homo sapiens), sequence (P00751 26-259): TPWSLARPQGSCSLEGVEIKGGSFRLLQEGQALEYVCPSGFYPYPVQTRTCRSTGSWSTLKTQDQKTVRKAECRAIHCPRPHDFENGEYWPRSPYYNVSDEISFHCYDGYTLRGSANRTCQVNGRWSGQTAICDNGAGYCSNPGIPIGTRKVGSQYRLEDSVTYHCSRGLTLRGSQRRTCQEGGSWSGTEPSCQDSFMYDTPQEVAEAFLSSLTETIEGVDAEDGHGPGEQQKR
C3b C3b, sequence (P01024 566-670): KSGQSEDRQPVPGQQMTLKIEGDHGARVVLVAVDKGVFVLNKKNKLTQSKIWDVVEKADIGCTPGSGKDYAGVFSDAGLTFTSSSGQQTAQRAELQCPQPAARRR
tag-free recombinant human factor D (mature FD), sequence (P00746 26-253): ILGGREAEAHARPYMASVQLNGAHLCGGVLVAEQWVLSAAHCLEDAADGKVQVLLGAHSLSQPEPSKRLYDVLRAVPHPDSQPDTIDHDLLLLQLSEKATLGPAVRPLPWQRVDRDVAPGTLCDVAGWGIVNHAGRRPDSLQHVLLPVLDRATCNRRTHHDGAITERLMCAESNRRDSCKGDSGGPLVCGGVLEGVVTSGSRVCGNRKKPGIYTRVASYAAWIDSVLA

human, serum-derived, purified factor B (natural protein)
enhancement of the cleavage of FB by FD (ratio of kobs/[E]T on C3bB and on free FB; SDS-PAGE densitometry of Bb, 37 °C) [1]: 2e+07 fold
enhancement of the cleavage of FB by MASP-1cf (ratio of kobs/[E]T on C3bB and on free FB; SDS-PAGE densitometry of Bb, 37 °C) [2]: 100 fold

C3b C3b (from UniProt P01024)
Kd [3]: 1.4 µM

tag-free recombinant human factor D (mature FD) (from UniProt P00746 26-253) (enzyme)
kobs/[E]T (estimate of kcat/KM) of the cleavage of C3bB (1.1 uM) by FD (0.25 nM), SDS-PAGE densitometry of Bb, 37 °C [4]: 6.5e+06 M⁻¹ s⁻¹
